Assay results reported in the supplement of paper PMC11316812.
± gives the standard deviation of the averaged measurements.

Experiments:
MCF7 = experiment: percentage of EdU-negative (G0-arrested) nuclei per well, 72 h; higher = more G0 arrest; settings: reference: sequence is the full UniProt precursor, the tested protein was the secreted form or ectodomain
hTERT-HMEC = experiment: as above; settings: reference: sequence is the full UniProt precursor, the tested protein was the secreted form or ectodomain
[1] = protein concentration 0.0257143 µM
[2] = protein concentration 0.257143 µM
[3] = protein concentration 0.02225 µM
[4] = protein concentration 0.2225 µM
[5] = protein concentration 0.0075 µM
[6] = protein concentration 0.0231575 µM
[7] = protein concentration 0.231575 µM
[8] = protein concentration 0.013725 µM
[9] = protein concentration 0.13725 µM
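Further: secreted proteins added to cultured cells, EdU pulse at the end, nuclei found by Hoechst imaging, EdU status from nuclear versus surrounding ring intensity ratio, PBS as neutral control.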

Sequence: MYLSICCCFLLWAPALTLKNLNYSVPEEQGAGTVIGNIGRDARLQPGLPPAERGGGGRSKSGSYRVLENSAPHLLDVDADSGLLYTKQRIDRESLCRHNAKCQLSLEVFANDKEICMIKVEIQDINDNAPSFSSDQIEMDISENAAPGTRFPLTSAHDPDAGENGLRTYLLTRDDHGLFGLDVKSRGDGTKFPELVIQKALDREQQNHHTLVLTALDGGEPPRSATVQINVKVIDSNDNSPVFEAPSYLVELPENAPLGTVVIDLNATDADEGPNGEVLYSFSSYVPDRVRELFSIDPKTGLIRVKGNLDYEENGMLEIDVQARDLGPNPIPAHCKVTVKLIDRNDNAPSIGFVSVRQGALSEAAPPGTVIALVRVTDRDSGKNGQLQCRVLGGGGTGGGGGLGGPGGSVPFKLEENYDNFYTVVTDRPLDRETQDEYNVTIVARDGGSPPLNSTKSFAIKILDENDNPPRFTKGLYVLQVHENNIPGEYLGSVLAQDPDLGQNGTVSYSILPSHIGDVSIYTYVSVNPTNGAIYALRSFNFEQTKAFEFKVLAKDSGAPAHLESNATVRVTVLDVNDNAPVIVLPTLQNDTAELQVPRNAGLGYLVSTVRALDSDFGESGRLTYEIVDGNDDHLFEIDPSSGEIRTLHPFWEDVTPVVELVVKVTDHGKPTLSAVAKLIIRSVSGSLPEGVPRVNGEQHHWDMSLPLIVTLSTISIILLAAMITIAVKCKRENKEIRTYNCRIAEYSHPQLGGGKGKKKKINKNDIMLVQSEVEERNAMNVMNVVSSPSLATSPMYFDYQTRLPLSSPRSEVMYLKPASNNLTVPQGHAGCHTSFTGQGTNASETPATRMSIIQTDNFPAEPNYMGSRQQFVQSSSTFKDPERASLRDSGHGDSDQADSDQDTNKGSCCDMSVREALKMKTTSTKSQPLEQEPEECVNCTDECRVLGHSDRCWMPQFPAANQAENADYRTNLFVPTVEANVETETYETVNPTGKKTFCTFGKDKREHTILIANVKPYLKAKRALSPLLQEVPSASSSPTKACIEPCTSTKGSLDGCEAKPGALAEASSQYLPTDSQYLSPSKQPRDPPFMASDQMARVFADVHSRASRDSSEMGAVLEQLDHPNRDLGRESVDAEEVVREIDKLLQDCRGNDPVAVRK
- percentage of EdU-negative (MCF7; [1]): 23.2 ± 3%
- percentage of EdU-negative (MCF7; [2]): 26.6 ± 0.28%
- percentage of EdU-negative (hTERT-HMEC; [1]): 4.62 ± 0.4%
- percentage of EdU-negative (hTERT-HMEC; [2]): 7.27 ± 0.33%

Sequence: MYLSRFLSIHALWVTVSSVMQPYPLVWGHYDLCKTQIYTEEGKVWDYMACQPESTDMTKYLKVKLDPPDITCGDPPETFCAMGNPYMCNNECDASTPELAHPPELMFDFEGRHPSTFWQSATWKEYPKPLQVNITLSWSKTIELTDNIVITFESGRPDQMILEKSLDYGRTWQPYQYYATDCLDAFHMDPKSVKDLSQHTVLEIICTEEYSTGYTTNSKIIHFEIKDRFAFFAGPRLRNMASLYGQLDTTKKLRDFFTVTDLRIRLLRPAVGEIFVDELHLARYFYAISDIKVRGRCKCNLHATVCVYDNSKLTCECEHNTTGPDCGKCKKNYQGRPWSPGSYLPIPKGTANTCIPSISSIGNCECFGHSNRCSYIDLLNTVICVSCKHNTRGQHCELCRLGYFRNASAQLDDENVCIECYCNPLGSIHDRCNGSGFCECKTGTTGPKCDECLPGNSWHYGCQPNVCDNELLHCQNGGTCHNNVRCLCPAAYTGILCEKLRCEEAGSCGSDSGQGAPPHGSPALLLLTTLLGTASPLVF [Q9Y2I2]
- percentage of EdU-negative (MCF7; [3]): 26.06 ± 0.23%
- percentage of EdU-negative (MCF7; [4]): 28.6 ± 3.7%
- percentage of EdU-negative (hTERT-HMEC; [3]): 5.38 ± 0.34%
- percentage of EdU-negative (hTERT-HMEC; [4]): 5.84 ± 1.4%

Sequence: MYLVAGDRGLAGCGHLLVSLLGLLLLLARSGTRALVCLPCDESKCEEPRNCPGSIVQGVCGCCYTCASQRNESCGGTFGIYGTCDRGLRCVIRPPLNGDSLTEYEAGVCEDENWTDDQLLGFKPCNENLIAGCNIINGKCECNTIRTCSNPFEFPSQDMCLSALKRIEEEKPDCSKARCEVQFSPRCPEDSVLIEGYAPPGECCPLPSRCVCNPAGCLRKVCQPGNLNILVSKASGKPGECCDLYECKPVFGVDCRTVECPPVQQTACPPDSYETQVRLTADGCCTLPTRCECLSGLCGFPVCEVGSTPRIVSRGDGTPGKCCDVFECVNDTKPACVFNNVEYYDGDMFRMDNCRFCRCQGGVAICFTAQCGEINCERYYVPEGECCPVCEDPVYPFNNPAGCYANGLILAHGDRWREDDCTFCQCVNGERHCVATVCGQTCTNPVKVPGECCPVCEEPTIITVDPPACGELSNCTLTGKDCINGFKRDHNGCRTCQCINTEELCSERKQGCTLNCPFGFLTDAQNCEICECRPRPKKCRPIICDKYCPLGLLKNKHGCDICRCKKCPELSCSKICPLGFQQDSHGCLICKCREASASAGPPILSGTCLTVDGHHHKNEESWHDGCRECYCLNGREMCALITCPVPACGNPTIHPGQCCPSCADDFVVQKPELSTPSICHAPGGEYFVEGETWNIDSCTQCTCHSGRVLCETEVCPPLLCQNPSRTQDSCCPQCTDQPFRPSLSRNNSVPNYCKNDEGDIFLAAESWKPDVCTSCICIDSVISCFSESCPSVSCERPVLRKGQCCPYCIEDTIPKKVVCHFSGKAYADEERWDLDSCTHCYCLQGQTLCSTVSCPPLPCVEPINVEGSCCPMCPEMYVPEPTNIPIEKTNHRGEVDLEVPLWPTPSENDIVHLPRDMGHLQVDYRDNRLHPSEDSSLDSIASVVVPIIICLSIIIAFLFINQKKQWIPLLCWYRTPTKPSSLNNQLVSVDCKKGTRVQVDSSQRMLRIAEPDARFSGFYSMQKQNHLQADNFYQTV [Q9NZV1]
- percentage of EdU-negative (MCF7; [5]): 24.3 ± 2.8%
- percentage of EdU-negative (MCF7; protein concentration 0.075 µM): 25.9 ± 0.87%
- percentage of EdU-negative (hTERT-HMEC; [5]): 4.66 ± 0.59%
- percentage of EdU-negative (hTERT-HMEC; protein concentration 0.075 µM): 5.81 ± 1.6%

Sequence: MYREWVVVNVFMMLYVQLVQGSSNEHGPVKRSSQSTLERSEQQIRAASSLEELLRITHSEDWKLWRCRLRLKSFTSMDSRSASHRSTRFAATFYDIETLKVIDEEWQRTQCSPRETCVEVASELGKSTNTFFKPPCVNVFRCGGCCNEESLICMNTSTSYISKQLFEISVPLTSVPELVPVKVANHTGCKCLPTAPRHPYSIIRRSIQIPEEDRCSHSKKLCPIDMLWDSNKCKCVLQEENPLAGTEDHSHLQEPALCGPHMMFDEDRCECVCKTPCPKDLIQHPKNCSCFECKESLETCCQKHKLFHPDTCSCEDRCPFHTRPCASGKTACAKHCRFPKEKRAAQGPHSRKNP
- percentage of EdU-negative (MCF7; [6]): 27.2 ± 0.62%
- percentage of EdU-negative (MCF7; [7]): 28.82 ± 0.28%
- percentage of EdU-negative (hTERT-HMEC; [6]): 4.71 ± 0.18%
- percentage of EdU-negative (hTERT-HMEC; [7]): 7.16 ± 1.6%

Sequence: MYRHGISSQRSWPLWTTIFIFLGVAAILGVTIGLLVHFLAVEKTYYYQGDFHISGVTYNDNCENAASQASTNLSKDIETKMLNAFQNSSIYKEYVKSEVIKLLPNANGSNVQLQLKFKFPPAEGVSMRTKIKAKLHQMLKNNMASWNAVPASIKLMEISKAASEMLTNNCCGRQVANSIITGNKIVNGKSSLEGAWPWQASMQWKGRHYCGASLISSRWLLSAAHCFAKKNNSKDWTVNFGIVVNKPYMTRKVQNIIFHENYSSPGLHDDIALVQLAEEVSFTEYIRKICLPEAKMKLSENDNVVVTGWGTLYMNGSFPVILQEDFLKIIDNKICNASYAYSGFVTDTMLCAGFMSGEADACQNDSGGPLAYPDSRNIWHLVGIVSWGDGCGKKNKPGVYTRVTSYRNWITSKTGL [Q86T26]
- percentage of EdU-negative (MCF7; [1]): 23.6 ± 1.4%
- percentage of EdU-negative (MCF7; [2]): 25.2 ± 1.9%
- percentage of EdU-negative (hTERT-HMEC; [1]): 5.22 ± 1.8%
- percentage of EdU-negative (hTERT-HMEC; [2]): 5.69 ± 1%

Sequence: MYSAPSACTCLCLHFLLLCFQVQVLVAEENVDFRIHVENQTRARDDVSRKQLRLYQLYSRTSGKHIQVLGRRISARGEDGDKYAQLLVETDTFGSQVRIKGKETEFYLCMNRKGKLVGKPDGTSKECVFIEKVLENNYTALMSAKYSGWYVGFTKKGRPRKGPKTRENQQDVHFMKRYPKGQPELQKPFKYTTVTKRSRRIRPTHPA
- percentage of EdU-negative (MCF7; [8]): 24.26 ± 0.046%
- percentage of EdU-negative (MCF7; [9]): 22.8 ± 0.92%
- percentage of EdU-negative (hTERT-HMEC; [8]): 4.7 ± 1.1%
- percentage of EdU-negative (hTERT-HMEC; [9]): 5.41 ± 0.5%
